Reference: US20250283065A1, “TRUNCATED POLYPEPTIDES HAVING PROTEIN LIGASE ACTIVITY AND METHODS OF PRODUCTION THEREOF” (NANYANG TECHNOLOGICAL UNIVERSITY, priority 2022, published 2025)

Experiments:
[1] = Refolding from E. coli inclusion bodies (urea solubilization, dialysis); format: physicochemical; conditions: urea solubilization followed by refolding
Description: Refolding and purification of constitutively active OaAEP1b-C247A-4351 using dialysis method: With all steps performed at 4° C., protein purification was achieved by resuspending thawed pellets in 30 mL of lysis buffer (100 mM Bis-Tris, pH 6.5, 500 mM NaCl, 10% (v/v) glycerol), sonicating the pellets followed by clearing the lysates by centrifugation at 58,000 g for 45 min. The insoluble fraction was resolubilized in 10 mL of resolubilizing buffer (50 mM Bis-Tris, pH 6.5, 150 mM NaCl, 1 mM EDTA, 50 mM Glycine, 8 M urea) overnight, with agitation. The concentration of denatured protein was determined using nanodrop and diluted to ˜2 mg mL-1 with buffer 1 (50 mM Bis-Tris, pH 6.5, 150 mM NaCl, 500 mM L-Arginine, 1 M urea, 0.25 mM L-Glutathione oxidized, 2.5 mM L-Glutathione reduced). The diluted denatured protein was dialyzed against buffer 2 (50 mM Bis-Tris, pH 6.5, 150 mM NaCl, 200 mM L-Arginine, 0.125 mM L-Glutathione oxidized, 1.25 mM L-Glutathione reduced) for 8 hr, followed by two buffer exchanges with buffer 3 (20 mM Bis-Tris, pH 6.5, 150 mM NaCl), for a duration of 8 hr for each buffer exchange. The refolded proteins were purified by affinity chromatography (HisTrap column, Cytiva), followed by size exclusion chromatography (HiLoad 16/600 Superdex 200, Cytiva). The proteins eluted as monomers during size exclusion purification. […]

[2] = system: peptides PIE {EDANS} YNAL and GIK {DABSYL} SIP; test: FRET ligation kinetics assay; format: biochemical
Description: Kinetics assay: The kinetic properties of the peptide ligation of the constitutively active PAL were studied using a FRET assay. Two peptides synthesized by GenScript: PIE {EDANS} YNAL (SEQ ID NO:18) and GIK {DABSYL} SIP (SEQ ID NO:19) were mixed at a molar ratio of 1:3. Upon ligation, the peptide PIE {EDANS} YNGIK {DABSYL} SIP (SEQ ID NO: 20) is produced. 50 nM of PAL enzyme is mixed with various concentrations of the peptide mixture. The EDANS fluorescence signal was measured with an excitation wavelength of 336 nm and an emission wavelength of 490 nm. A reduction in EDANS fluorescence signal occurs upon ligation of the two peptides due to quenching by DABSYL. The variation in fluorescence signal for each substrate mixture concentration was measured after addition of the enzyme to initiate the reaction. The rate of decrease in fluorescence signal during the first 30 seconds after enzyme addition was plotted against the substrate concentration to obtain the Vmax, kcat and KM values for each enzyme.
Next, using a FRET ligation assay, the ligase activity of the truncated OaAEP1b-C247A-Δ351 was compared with its acid-activated zymogen counterpart. Briefly, 50 nM of either enzyme was added to a mixture of two peptides A: PIE (EDANS) YNAL (SEQ ID NO:18) and B: GIK (DABSYL) SIP (SEQ ID NO:19). These two peptides were mixed in a A:B molar ratio of 1:3. Upon ligation, the fluorescence signal emission of the EDANS moiety of A (λem=490 nm) becomes quenched by the DABSYL moiety of B. (FIG. 7A). This assay the ligation rate to be followed between both peptides in real-time, giving access to the kinetic parameters of the truncated enzyme.

[3] = system: TrmJ-NAL; test: Conjugation of TrmJ with a fluorescent peptide (SDS PAGE); format: biochemical; conditions: 200 nM enzyme, 37° C., after an hour of reaction time
Description: Conjugation of TrmJ: A concentration of 200 nM of OaAEP1b-C247A-4351 was used to conjugate 10 μM of TrmJ-NAL with 50 μM of a short fluorescence peptide synthesized by Genscript: GIGGIYRK-FITC (SEQ ID NO:21). This reaction was carried out in a 20 mM NaH2PO4, pH 6.5 at 37° C. for 1 hour with a final volume of 500 μL. A volume of 50 µL of the reaction was mixed with 5×SDS loading dye after 5, 10, 20, 30 and 60 minutes. The amount of conjugated TrmJ-NAL at all time points was then analyzed using SDS PAGE.
To evaluate OaAEP1b-C247A-Δ351 conjugation capability, a protein of 20 kDa, tRNA methyltransferase, TrmJ were conjugated. TrmJ was modified to include the C-terminal OaAEP1b-C247A-Δ351 preferred tripeptide recognition motif (Asn-Ala-Leu). Using 200 nM of OaAEP1b-C247A-Δ351, TrmJ present in the solution was able to conjugate with a short fluorescence peptide consisting of an N-terminal Gly/Ile (GIGGIYRK-FITC) (SEQ ID NO: 21). The conjugation rate at 37° C. was analyzed using SDS PAGE at […] different time points.

[4] = 50 nM enzyme, peptides A:B molar ratio 1:3

Chain of peptides PIE {EDANS} YNAL and GIK {DABSYL} SIP (as listed by the source): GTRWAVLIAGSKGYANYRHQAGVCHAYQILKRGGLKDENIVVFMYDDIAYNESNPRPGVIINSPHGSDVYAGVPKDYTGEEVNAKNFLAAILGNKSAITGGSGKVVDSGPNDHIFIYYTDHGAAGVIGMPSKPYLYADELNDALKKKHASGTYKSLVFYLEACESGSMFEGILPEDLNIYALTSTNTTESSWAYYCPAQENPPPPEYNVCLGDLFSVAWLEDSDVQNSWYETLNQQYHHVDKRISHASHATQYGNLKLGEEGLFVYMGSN

B1: OaAEP1b-C247A-Δ351: truncated OaAEP1b-C247A construct, residues 352-474 deleted, D351 as C-terminus; constitutively active peptide asparaginyl ligase (protein)
chain: GTRWAVLIAGSKGYANYRHQAGVCHAYQILKRGGLKDENIVVFMYDDIAYNESNPRPGVIINSPHGSDVYAGVPKDYTGEEVNAKNFLAAILGNKSAITGGSGKVVDSGPNDHIFIYYTDHGAAGVIGMPSKPYLYADELNDALKKKHASGTYKSLVFYLEACESGSMFEGILPEDLNIYALTSTNTTESSWCYYCPAQENPPPPEYNVCLGDLFSVAWLEDSDVQNSWYETLNQQYHHVDKRISHASHATQYGNLKLGEEGLFVYMGSNPANDNYTSLDGNALTPSSIVVNQRDAD
- behaviour during refolding procedure [1]: could be refolded
- Km [2, 4]: 8.16 µM
- Vmax [2, 4]: 6.40 RFU/see
- ligation activity relative to acid-activated zymogen counterpart (fold less) ([2]; FRET ligation assay): about 2 fold
- conjugation of TrmJ with GIGGIYRK-FITC [3]: most of TrmJ was labelled with FITC
